From publication PMC5778458
Like-named read-outs stand apart in the source and are kept apart here.

Tests used:
Assay in all cases: filter binding
[1] = biological target: T1, Cbf5p;Nop10p;Gar1p;Nhp2p (Saccharomyces cerevisiae;Saccharomyces …, UniProt P33322;Q6Q547;P28007;P32495 1-483;1-58;1-205;1-156, |||)
T1 sequence 1: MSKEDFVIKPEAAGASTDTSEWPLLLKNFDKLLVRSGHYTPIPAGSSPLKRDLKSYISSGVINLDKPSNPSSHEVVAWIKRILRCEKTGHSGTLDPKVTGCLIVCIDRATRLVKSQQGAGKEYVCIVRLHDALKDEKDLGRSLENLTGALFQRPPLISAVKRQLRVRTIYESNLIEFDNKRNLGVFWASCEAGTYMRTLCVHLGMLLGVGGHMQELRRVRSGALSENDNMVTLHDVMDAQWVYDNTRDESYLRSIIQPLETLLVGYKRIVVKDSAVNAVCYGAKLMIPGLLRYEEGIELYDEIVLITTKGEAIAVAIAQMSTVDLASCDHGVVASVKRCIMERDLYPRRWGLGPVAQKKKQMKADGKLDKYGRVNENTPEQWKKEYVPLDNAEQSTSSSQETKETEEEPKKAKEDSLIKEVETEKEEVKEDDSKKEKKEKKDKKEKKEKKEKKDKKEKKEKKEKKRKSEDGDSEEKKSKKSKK
T1 sequence 2: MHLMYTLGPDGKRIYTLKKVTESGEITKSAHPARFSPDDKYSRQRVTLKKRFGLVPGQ
T1 sequence 3: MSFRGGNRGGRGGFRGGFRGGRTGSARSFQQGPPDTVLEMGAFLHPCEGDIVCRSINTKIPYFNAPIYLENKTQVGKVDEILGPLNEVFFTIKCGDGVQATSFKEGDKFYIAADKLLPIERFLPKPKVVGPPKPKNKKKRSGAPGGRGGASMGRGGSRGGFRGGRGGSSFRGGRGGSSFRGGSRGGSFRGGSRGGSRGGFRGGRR
T1 sequence 4: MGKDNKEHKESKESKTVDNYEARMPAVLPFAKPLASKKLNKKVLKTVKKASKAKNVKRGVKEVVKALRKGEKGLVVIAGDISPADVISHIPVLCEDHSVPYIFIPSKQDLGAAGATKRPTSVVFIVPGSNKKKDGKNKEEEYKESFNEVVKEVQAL

[2] = biological target: T2, Cbf5p;Nop10p;Gar1p (Saccharomyces cerevisiae;Saccharomyces …, UniProt P33322;Q6Q547;P28007 1-483;1-58;1-205, ||)
T2 sequence 1: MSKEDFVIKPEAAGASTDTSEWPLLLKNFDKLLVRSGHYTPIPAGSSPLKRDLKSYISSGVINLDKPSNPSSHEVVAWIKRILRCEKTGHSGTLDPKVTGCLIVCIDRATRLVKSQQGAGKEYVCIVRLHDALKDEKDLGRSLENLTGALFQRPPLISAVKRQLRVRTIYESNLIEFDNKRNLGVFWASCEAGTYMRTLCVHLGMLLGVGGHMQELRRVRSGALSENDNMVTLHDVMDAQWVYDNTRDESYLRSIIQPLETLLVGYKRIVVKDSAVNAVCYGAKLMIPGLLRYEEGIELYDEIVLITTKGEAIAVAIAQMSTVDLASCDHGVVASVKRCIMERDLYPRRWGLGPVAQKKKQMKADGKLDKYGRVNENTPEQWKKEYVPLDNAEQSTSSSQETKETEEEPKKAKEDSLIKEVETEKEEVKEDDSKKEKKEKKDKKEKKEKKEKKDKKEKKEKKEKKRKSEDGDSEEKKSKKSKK
T2 sequence 2: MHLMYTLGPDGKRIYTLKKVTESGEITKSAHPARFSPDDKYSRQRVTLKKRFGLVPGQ
T2 sequence 3: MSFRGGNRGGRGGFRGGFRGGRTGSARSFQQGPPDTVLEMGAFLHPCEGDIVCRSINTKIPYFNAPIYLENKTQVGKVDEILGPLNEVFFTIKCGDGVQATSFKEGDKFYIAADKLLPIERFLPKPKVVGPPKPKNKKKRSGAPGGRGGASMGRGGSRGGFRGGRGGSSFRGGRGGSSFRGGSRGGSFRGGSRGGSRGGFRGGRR

[3] = biological target: T1, Cbf5p;Nop10p;Gar1p;Nhp2p; remark: listed apart in the source
[4] = biological target: T1, Cbf5p;Nop10p;Gar1p;Nhp2p; remark: listed apart in the source

Q: How did the Kd [1] turn out when GGGACGUCGGCUCUUCCUAUCAUACC (mixed) [snR34 delta Box ACA guide + 3' substrate RNA] was run?
A: The Kd was 150 ± 30 nM.

Q: Which Kd [2] does the source give for GGGACGUCGGCUCUUCCUAUCAUACC (mixed) [snR34 guide + 3' substrate RNA] here?
A: The Kd was 90 ± 20 nM.

B1: snR34 5' HP extended stem (structured_RNA)
RNA: GGGAAUCAAAAAUUUAUUUUUUACACGGAAACGAUGCCACAGUUGACUGAACCUGUCUUCUAACAGUAGUUAAUUGCCAGUAUUUCCGUGUAAACAAGA
Q: For B1, which Kd [3] is on record?
A: Its Kd is 1.3 ± 0.5 nM.

Q: GGGACGUCGGCUCUUCCUAUCAUACC (mixed) [snR34 delta Box H guide + 3' substrate RNA] was tested. Which Kd [1] did it give?
A: The Kd was 90 ± 30 nM.

Q: Which Kd [4] does the source give for GGGGACAACUGGCUUGUGGCAGCCA (mixed) [snR34 guide + 5' substrate RNA] here?
A: The Kd was 53 ± 22 nM.

Q: And the Kd [2]?
A: The Kd was 50 ± 20 nM.
